Assay results taken from patent US20230183318A1 (KOREA UNIVERSITY RESEARCH AND BUSINESS FOUNDATION, published 2023).
Changes are numbered by the printed parent chain. Names may count otherwise.

Tests used:
[1] = biological target: T1, dimeric human PD-L1 (PD-L1-Fc), Alexa-488 labelled (human, UniProt Q9NZQ7 19-238, Alexa-488 fluorescent label (sites not given)); experiment: flow cytometry of E. coli spheroplasts displaying the variant, 50 nM dimeric PD-L1-Fc-Alexa488
T1 construct: also called dimeric PD-L1-Fc-Alexa488 probe; dimeric PD-L1-Alexa488 probe; not shown: Fc domain of antibody IgG at the C-terminus; GS linker between PD-L1 and Fc

[2] = biological target: T1, dimeric human PD-L1 (PD-L1-Fc), …; experiment: flow cytometry of E. coli spheroplasts displaying single clones, fluorescent PD-L1 probe
Procedure: Single colonies at the final round were incubated like Examples above to overexpress the protein and recover E. coli, respectively, and the peptidoglycan layer was removed and the spheroplasts were fluorescent-labeled, and then the binding ability to PD-L1 was analyzed by measuring the fluorescence signal values using FACSCalibur equipment.

T1 sequence (Q9NZQ7 19-238): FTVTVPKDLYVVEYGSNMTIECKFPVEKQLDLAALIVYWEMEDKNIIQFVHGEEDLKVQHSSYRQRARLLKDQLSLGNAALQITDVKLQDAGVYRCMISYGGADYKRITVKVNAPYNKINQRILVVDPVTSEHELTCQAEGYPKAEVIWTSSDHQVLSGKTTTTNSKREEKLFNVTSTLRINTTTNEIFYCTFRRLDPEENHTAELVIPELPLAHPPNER

B1: aglycosylated PD-1 variant Q-IITV (F13I, N25Q, N34Q, M46I, N50Q, C69T, N92Q, G100V), displayed on E. coli spheroplasts (receptor)
chain: LDSPDRPWNPPTISPALLVVTEGDQATFTCSFSQTSESFVLNWYRISPSQQTDKLAAFPEDRSQPGQDTRFRVTQLPNGRDFHMSVVRARRQDSGTYLCVAISLAPKAQIKESLRAELRVTERRAEVPTAHPSPSPRPAGQFQ
notes: pMopac12-N1pA-PD1_Q-IITV-FLAG; not shown: NlpA leader/anchor of the pMopac12-NlpA-FLAG vector; FLAG tag
B1: binds [1].

B2: aglycosylated PD-1 variant Q12, displayed on E. coli spheroplasts (receptor)
chain: B1 chain with W8L, N9D, E37K, A108V, G140C
notes: Single clone of the final sorting round; not shown: NlpA leader/anchor of the pMopac12-NlpA-FLAG vector; FLAG tag
B2: binds [2].

B3: aglycosylated PD-1 variant Q18, displayed on E. coli spheroplasts (receptor)
chain: B1 chain with S31G, F32L, S33P, S47G, T52M, A108V, P128R, P138S
notes: as for B2
B3: binds [2].

B4: aglycosylated PD-1 variant Q10, displayed on E. coli spheroplasts (receptor)
chain: B1 chain with F32L, T52M, V87D, T96S, A108V
notes: as for B2
B4: binds [2].

B5: PD-1 variant N-IITV (F13I, M46I, C69T, G100V), displayed on E. coli spheroplasts (receptor)
chain: B1 chain with Q25N, Q34N, Q50N, Q92N
notes: also called N-IIITV; PD1_N-IITV; not shown: NlpA leader/anchor of the pMopac12-NlpA-FLAG vector; FLAG tag
B5: binds [1].

B6: aglycosylated PD-1 variant Q33, displayed on E. coli spheroplasts (receptor)
chain: B1 chain with Q34R, R88G, R90Q, A108V
notes: as for B2
B6: binds [2].
